{"source": "patent US10100120B2", "about": "“Antibody which specifically binds to human CRTH2” (KYOWA HAKKO KIRIN CO., LTD, priority 2015, dated 2018)", "key": {"[1]": {"test_system": "human basophils", "test": "Basophil depletion (cytotoxic) activity in human peripheral blood cells, flow cytometry", "assay_type": "cell-based", "conditions": "37° C., 20 hours", "method": "(§1) Human peripheral blood collected by adding a heparin sodium injection liquid was centrifuged at 4° C. and 1500 rpm for 30 minutes, and the plasma was recovered.\n(§2) After the plasma was recovered, PBS (NACALAI TESQUE, Inc.) was added to the pellet containing the red blood up to the original volume of blood and the pellet was suspended. Next, to 1 mL of the suspension, 10 mL of hemolyzing solution [solution obtained by diluting 10×RBC Lysis buffer (eBioscience) 10 times with sterile water] was added to be mixed by inversion. The resultant was allowed to stand at room temperature for 10 minutes and centrifuged at room temperature and 1500 rpm for 5 minutes and washed twice with PBS after the supernatant was removed therefrom.\n(§3) Thereafter, the cell pellet was suspended with the recovered plasma and the cells were seeded in a 48-well plate at 300 μL/well, each of chLym2, humanized Lym2 antibodies LV0HV0, LV0HV1, and LV0HV2a, or an isotype control antibody [IgG1 antibody prepared according to the method described in Example 5 using a vector encoding an anti-2,4-dinitrophenol (DNP) IgG1 antibody described in Clin Cancer Res 2005, 11(8), 3126 to 3135 (hereinafter, referred to as anti-DNP IgG1 antibody)] were added at each final concentrations of 1000, 100, 33, 11, 3.7, 1.2, 0.4, and 0.01 ng/mL to cause a reaction in a 5% CO2 incubator at 37° C. for 20 hours.\n(§4) After the reaction, the cell fluid in each well was recovered, 10 mL of SM was added thereto, 200 μL per sample of CountBright Absolute Counting Beads, for flow cytometry (Molecular Probes) was added as control beads, and the fluid was centrifuged at 4° C. and 2000 rpm for 10 minutes, and then the supernatant was removed. The resultant was washed twice with SM, 10000 μg/mL of IgG from human serum (Sigma-Aldrich Co. LLC) diluted with SM was added at 300 μL/sample and suspended to cause a reaction at 4° C. for 30 minutes. […]\n(§5) The cells were washed twice with SM, suspended by SM containing 1% of 7-AAD Staining Solution (BD Biosciences), allowed to stand at 4° C. for 10 minutes, and the fluorescent intensity was analyzed by flow cytometry (BD Biosciences, FACS CantoII).\n(§6) Human eosinophils were detected as 7-AAD negative siglec8-PE positive fractions in granulocyte fractions of FSC-SSC deployment. Human basophils were detected as 7-AAD negative fractions, CD123-PC-Cy7 positive fractions, FcεRI-APC positive fractions in lymphocyte fractions of FSC-SSC deployment. The cell depletion activity was evaluated by analyzing the count number of each cell per a certain number of CountBright. […]"}, "[2]": {"test_system": "Th2 cells", "test": "Cytotoxic activity against Th2 cells: cytokine production of PBMC after antibody treatment", "assay_type": "cell-based, human", "conditions": "antibody 10 μg/mL 20 hours, then anti-CD3/anti-CD28 stimulation 3 days", "method": "The mononuclear cell layer prepared in the same manner as in Example 13 was washed twice with RPMI-1640 (Wako Pure Chemical Industries) to which 1/10 volume FBS (GIBCO Inc.), 200 mM-L-Glutamine Stock Solution (NACALAI TESQUE, Inc.), 10 mM MEM Non-Essential Amino Acids Solution (GIBCO Inc.), 100 mM Sodium Pyruvate (GIBCO Inc.), 1 M HEPES Buffer Solution (GIBCO Inc.), and 1/100 volume Penicillin-Streptomycin, Liquid (GIBCO Inc.) were added [hereinafter, referred to as peripheral blood mononuclear cell (PBMC) culture medium], thereby preparing a 1×10^7 cells/mL cell suspension.\nThe prepared cell suspension was seeded in a 96-well plate at 100 μL/well, chLym2 antibody, the humanized anti-human CRTH2 antibody LV0HV1 or the isotype control antibody described in Example 8 was added thereto at a final concentration of 10 μg/mL to cause a reaction in a 5% CO2 incubator at 37° C. for 20 hours.\nThe cells after the reaction were washed 7 times with a PBMC culture medium to remove the test antibodies thoroughly. Thereafter, the cells were suspended with 100 μL of PBMC culture medium and seeded in a plate in which anti-CD3 antibody OKT3 (Abeam plc.) was immobilized at a concentration of 1 μg/mL. Next, an anti-CD28 antibody (BD Biosciences) prepared to have a concentration of 2 μg/mL was added thereto at 100 μL/well to cause a reaction in a 5% CO2 incubator at 37° C. for 3 days.\nThe supernatant after the reaction was recovered, and cytokine in the supernatant was quantified using Human IFN-γ Flex Set (BD Biosciences), Human IL-5 Flex Set (BD Biosciences), and Human IL-13 Flex Set (BD Biosciences) according to the attached instructions."}, "[3]": {"test_system": "human eosinophils", "test": "Eosinophil depletion (cytotoxic) activity in human peripheral blood cells, flow cytometry", "assay_type": "cell-based", "conditions": "37° C., 20 hours", "method": "as §1, §2, §3, §4, §5, §6"}, "[4]": {"conditions": "Example 8, 0.01-1000 ng/mL, FIG. 3"}, "[5]": {"conditions": "Example 14, 0.1-1000 ng/mL, FIG. 11"}}, "data": [{"molecule": "LV0HV1: humanized Lym2 antibody, VL LV0 (SEQ ID NO: 33), VH HV1 (SEQ ID NO: 51) (antibody, V domains shown) VH: EVQLVESGGGVVQPGRSLRLSCAASGFTFSNYYMAWVRQAPGKGLEWVATISYDGSSTYYRDSVKGRFTISRDNAKNSLYLQMNSLRAEDTATYYCARHRGYYYSGAGYFDYWGQGTMVTVSS VL: DIVMTQTPLSLPVTPGESASISCRSSQSLEYSDGYTYLEWYLQKPGQSPQVLIYGVSNRFSGVPDRFSGSGSGTDFTLKISRVEAEDVGVYYCFQATHDPLTFGQGTKLEIK", "values": [{"measurement": "cytotoxic activity against basophils", "setting": "[1]; [4]", "result": "comparable to the chimeric Lym2 antibody chLym2"}, {"measurement": "removal of basophils", "setting": "[1]; [5]", "result": "removed"}, {"measurement": "production of IL-5 (Th2 cytokine)", "setting": "[2]; FIG. 12(A)", "result": "reduced"}, {"measurement": "production of IL-13 (Th2 cytokine)", "setting": "[2]; FIG. 12(A)", "result": "reduced"}, {"measurement": "production of IFN-γ (Th1 cytokine)", "setting": "[2]; FIG. 12(B)", "result": "not changed"}, {"measurement": "cytotoxic activity against eosinophils", "setting": "[3]; [4]", "result": "comparable to the chimeric Lym2 antibody chLym2"}, {"measurement": "removal of eosinophils", "setting": "[3]; [5]", "result": "removed"}]}]}
